This assay deals with HIV-1 YU2 gp120 S375A mutant (HIV-1 YU2). Briefly: SPR. (Surface plasmon resonance follows binding to a sensor surface in real time, without labels.)

In general, pIC50 refers to −log10 of the IC50, conventionally taken in molar units. Read a high pIC50 as a low IC50.

pIC50: −log10 of the molar value.

KR21 biotinylated peptide triazole had a pIC50 of 5.89.

For the origin of these results see publication PMC3800186.
